Test results as given in patent US20210269772A1, “COMPOSITIONS AND METHODS RELATED TO APTAMER-BASED REVERSIBLE CELL SELECTION” (UNIVERSITY OF WASHINGTON, published 2021).

What was measured:
[1] = biological target: CD8 alpha (CD8a) on CD8+ T cells / PBMC (Homo sapiens, UniProt P01732 P01732:22-235); assay: flow; apparent Kd on CD8+ T cells, 4 C, 5.5 mM Mg; binding reduced 73-77% by CD8a siRNA; conditions: label: 5'-FAM (cells); biotin (BLI)
[2] = biological target: CD8 alpha (CD8a) extracellular domain (Homo sapiens, UniProt P01732 P01732:22-182); assay: BLI; 25 C, 5.5 mM Mg, tRNA, BSA, 0.01% tween-20; conditions: tags: Sino Biological; label: 5'-FAM (cells); biotin (BLI)
Sequence of CD8 alpha (CD8a) extracellular domain (P01732 22-182, one chain of several): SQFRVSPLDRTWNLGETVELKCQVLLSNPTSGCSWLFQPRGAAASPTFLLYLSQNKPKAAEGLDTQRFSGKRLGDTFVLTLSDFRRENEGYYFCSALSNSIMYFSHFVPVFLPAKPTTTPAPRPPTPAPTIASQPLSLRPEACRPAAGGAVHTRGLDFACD
Procedure: The observed differences in binding affinity values determined by the two methods is expected. Mass transport limitations not present with BLI but present when staining cells in static wells will favor re-binding and thereby limit dissociation, improving the apparent KD of the faster dissociating A3 relative to the other aptamers.
BLI studies were conducted on a ForteBio Octet Red96 instrument at 25° C. with sample agitation at 1000 rpm. The sample buffer used for all steps was comprised of binding buffer with 0.01% tween-20. Streptavidin-coated biosensors were loaded with 50nM biotinylated aptamer until all sensors (except for the reference) reached a capture threshold of 0.5 nm. After a 100 second rinse and baseline steps in buffer alone, sensors were exposed to a 1:3 dilution series of recombinant human CD8a protein (Sino Biological) ranging from 150nM to 5.56nM. Association with protein was monitored for 1200 sec, and dissociation was carried out for 600 second in buffer alone. Data analysis was carried out using Octet Data Analysis 9.0 software (ForteBio). Kinetic constants were calculated by conducting a global fit of the several processed association and dissociation curves from the protein dilution series to a 1:1 binding model. The quality of the fit was evaluated by the R2 and χ2 values.

Sequence of CD8 alpha (CD8a) on CD8+ T cells / PBMC (P01732 22-235, one chain of several): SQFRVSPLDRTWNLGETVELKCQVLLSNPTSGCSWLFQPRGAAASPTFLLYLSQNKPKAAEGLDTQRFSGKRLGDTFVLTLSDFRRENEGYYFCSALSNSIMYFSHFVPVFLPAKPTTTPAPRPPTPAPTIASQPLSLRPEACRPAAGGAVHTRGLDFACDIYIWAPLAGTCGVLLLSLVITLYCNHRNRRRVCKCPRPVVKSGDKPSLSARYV

B1: A8 (ssDNA)
DNA: ATCCAGAGTGACGCAGCAGCTCGATCGTATAGCCGTGACGCAGCTTGAAATGGGATCGCGTCCACAGTTTTGGACACGGTGGCTTAGT
Kd [1]: 2.4 nM

B2: A3 (ssDNA)
DNA: ATCCAGAGTGACGCAGCAACAGAGGTGTAGAAGTACACGTGAACAAGCTTGAAATTGTCTCTGACAGAGGTGGACACGGTGGCTTAGT
Kd [1]: 1.9 nM

B3: A1 (ssDNA)
DNA: ATCCAGAGTGACGCAGCACGCAGCACCCGTGGTAGTGTATCAGGGAGACACTACGTGATGCAGCTTGAAATGGACACGGTGGCTTAGT
Kd [2]: 20.1 nM | Kd [1]: 18.3 nM
